Laboratory results as given in patent publication US7135457 (CYTOGEN, dated 2006).

Assays:
[1] = target: T1, human intestinal peptide-associated transporter HPT1 receptor domain, amino acid residues 29-273, His-tag … (human, UniProt Q12864 29-273); assay: phage ELISA, OD on HPT1 over OD on BSA
T1 construct: Expressed as His-tag fusion, purified under denaturing conditions, coated on plates; not shown: poly-histidine tag (pET His-tag) at the NH2-terminal end
T1 sequence: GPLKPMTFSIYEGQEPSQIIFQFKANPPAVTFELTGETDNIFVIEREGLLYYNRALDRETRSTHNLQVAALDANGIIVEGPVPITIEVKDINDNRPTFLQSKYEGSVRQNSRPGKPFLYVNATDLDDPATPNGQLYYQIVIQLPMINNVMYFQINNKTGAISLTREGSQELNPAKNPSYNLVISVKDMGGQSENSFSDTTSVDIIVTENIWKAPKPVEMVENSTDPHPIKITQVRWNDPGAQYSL

[2] = target: T1, human intestinal peptide-associated …; assay: phage ELISA, coated HPT1 domain
[3] = target: T1, human intestinal peptide-associated …; assay: phage ELISA, OD on HPT1 over OD on BSA; remark: listed apart in the source
Method: (§1) 6.6. Receptor ELISA Procedure 96 well plates were coated overnight with GIT receptor, BSA and, optionally, IDE (insulin degrading enzyme, an irrelevant His-fusion protein) or hTF. The plates were blocked for one hour with 0.5% BSA-PBS. After clarification, the amplified phage were diluted 1:100 in 1% BSA plus 0.05% Tween 20 in PBS and added to the plates. Following incubation of the plates on a rotator for 1 to 2 hours, the plates were washed 5 times with 1% BSA plus 0.05% Tween 20 in PBS. […] After the plates were washed 5 times, as described above, TMB substrate was added to the wells. The plates were read at 650 nm absorbance.

[4] = target: T2, human D2H transporter receptor domain, amino acid residues 387-685, His-tag fusion protein (human, UniProt Q07837 387-685); assay: phage ELISA, OD on D2H over OD on BSA
T2 construct: Expressed as His-tag fusion, purified under denaturing conditions, coated on plates; not shown: poly-histidine tag (pET His-tag) at the NH2-terminal end
T2 sequence: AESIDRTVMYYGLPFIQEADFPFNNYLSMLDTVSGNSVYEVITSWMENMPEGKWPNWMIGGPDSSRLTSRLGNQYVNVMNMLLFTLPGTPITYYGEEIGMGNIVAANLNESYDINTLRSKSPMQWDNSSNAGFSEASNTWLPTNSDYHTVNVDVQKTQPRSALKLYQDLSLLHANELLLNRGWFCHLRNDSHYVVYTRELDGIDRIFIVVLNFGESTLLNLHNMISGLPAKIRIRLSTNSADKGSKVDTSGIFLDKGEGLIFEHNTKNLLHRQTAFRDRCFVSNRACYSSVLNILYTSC
Method: as §1
(§2) Binding to fixed Caco-2 cells, D2H and BSA was examined.

[5] = target: T2, human D2H transporter receptor domain, …; assay: phage ELISA, coated D2H domain
Method: as §1, §2

B1: phage HAX40 (peptide)
peptide: REFAERRLWGCDDLSWRLDAEGCGPTPSNRAVKHRKPRPRSPAL
notes: pIII and flanks not included; also called H44
Question: Which results are given for B1?
Answer: HPT/BSA [1]: 15 ratio; OD [2]: 0.991 OD 650 nm

Question: For SDHALGTNLRSDNAKEPGDYNCCGNGNSTGRKVFNRRRPSAIPT (pIII and flanks not included) [phage HAX42], which HPT/BSA [1] is on record?
Answer: The HPT/BSA was 5 ratio.

Question: What about the OD [2] of the same binder?
Answer: The OD was 0.32 OD 650 nm.

Question: RHISEYSFANSHLMGGESKRKGCGINGSFSPTCPRSPTPAFRRT (pIII and flanks not included) [phage HCA3] was tested. Which HPT1/BSA [3] did it give?
Answer: Its HPT1/BSA is 1 ratio.

Question: What does the source list for RYSGLSPRDNGPACSQEATLEGCGAQRLMSTRRKGRNSRPGWTL (pIII and flanks not included) [phage DCX42]?
Answer: D2H/BSA [4]: 2 ratio; OD [5]: 0.158 OD 650 nm

Question: Which D2H/BSA [4] does the source give for RWNWTVLPATGGHYWTRSTDYHAINNHRPSIPHQHPTPI (pIII and flanks not included) [phage DCX33] here?
Answer: The D2H/BSA was 6 ratio.

Question: And the OD [5]?
Answer: The OD was 0.616 OD 650 nm.

Question: Which HPT/BSA [1] does the source give for SREEANWDGYKREMSHRSRFWDATHLSRPRRPANSGDPN (pIII and flanks not included) [phage HAX9] here?
Answer: Its HPT/BSA is 5 ratio.

Question: What about the OD [2] of the same binder?
Answer: Its OD is 0.382 OD 650 nm.

Question: With SVGNDKTSRPVSFYGRVSDLWNASLMPKRTPSSKRHDDG (pIII and flanks not included) [phage DCX45] as the binder, how does the D2H/BSA [4] read?
Answer: Its D2H/BSA is 4 ratio.

Question: And the OD [5]?
Answer: Its OD is 0.336 OD 650 nm.
